Changes are numbered by the printed parent chain. No end group written: not given here. *: point of attachment. Biotin = O=C1N[C@H]2[C@H](CS[C@H]2CCCCC(=O)*)N1; Ahx = NCCCCCC(=O)O
Assays:
[1] = system: wildtype RGS12 PDZ domain; details: prior SPR assays; ref [19],[42],[65]; cited from earlier work
Excerpt: Table 1 Heat map of GLIDE SP-peptide and GLIDE XP scores for predicted docking of four pentameric ligands into the ligand-binding “receptor grid” specified for each of the 20 low-energy structural models (“poses”) of the human RGS12 PDZ domain recorded within PDB id 2KV8. […] Each of the three C-tail ligands was synthesized as an N-terminally biotin-tagged polypeptide and used to create gold nanoparticle biosensors for measuring the binding of these recombinant GST-RGS12 PDZ domain fus ...

[2] = system: recombinant RGS12 PDZ domain protein; details: biotinylated peptide immobilized on streptavidin chip to 350 RU; 10 mM HEPES pH 7.4, 250 mM NaCl, 0.05% Nonidet P-40, 50 μM EDTA; analyte 300 μM (10 nM to 500 μM); mNotch1 surface subtracted
Procedure: Optical detection of real-time protein–peptide interactions by surface plasmon resonance was performed using a Biacore 3000 (Cytiva; Marlborough, MA, USA), as per previously described methods [65, 105, 106]. Briefly, biotinylated peptides were separately immobilized on streptavidin-coated SPR chips (Cytiva) to 350 resonance units (RUs). All experiments were performed with the sensor surface, fluidics, and pump equilibrated with Biacore running buffer (10 mM HEPES pH 7.4, 250 mM NaCl, 0.05% (v/v) Nonidet P-40, and 50 μM EDTA). Increasing concentrations (10 nM to 500 μM) of recombinant RGS12 PDZ domain protein (expressed from E. coli culture and purified as previously described in ref. [65]) were separately injected at a flow rate of 10 μL/min with a 300 s dissociation phase. The surface was regenerated between each test concentration by the injection of a denaturing regeneration buffer (1 M NaCl, 50 mM NaOH). Non-specific binding to a biotinylated mNotch1 peptide-bound streptavidin surface was subtracted from each curve (BIA-evaluation Version 3.0 software, Cytiva). Maximal response units for each injection were plotted using GraphPad Prism 5.0.

[3] = system: isolated rat RGS12 PDZ domain (recombinant GST-fusion protein); parameters: method as in PMID 9651375, PMID 17380122, PMID 11771424; details: C-terminal tail peptide; ref [19],[42],[65]; cited from earlier work
[4] = molecular target: T1, R59Q-variant RGS12 PDZ domain GST-fusion protein (Homo sapiens, UniProt O14924, R59Q); test: SPR single-cycle kinetics (Alto), R59Q-variant PDZ domain; assay type: binding; details: R59Q vs wildtype; peptide biosensors; N = 2-4
T1 construct: human RGS12 PDZ domain (aa 18–101 of UniProt O14924); purchased GenScript; host or cells: E. coli
T1 sequence (O14924 18-101 R59Q): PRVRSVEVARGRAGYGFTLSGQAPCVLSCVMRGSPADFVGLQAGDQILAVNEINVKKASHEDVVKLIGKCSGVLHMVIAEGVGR
Procedure: Wildtype and R59Q-variant versions of the human RGS12 PDZ domain (aa 18–101 of UniProt O14924) were each cloned in frame with an N-terminal glutathione-S-transferase (GST) expression tag, expressed by E. coli fermentation, and purified by GST-affinity column and size-exclusion column chromatographies by GenScript. These recombinant GST-fusion proteins were stored at −80 °C in a storage buffer (150 mM NaCl, 10 mM Tris-HCl pH 7.6, 1 mM EDTA, 5 mM DTT, and 10% glycerol) prior to thawing and supplementation with 0.1% (final) Tween 20 for use in the SPR experiments.
Biotinylated peptides were separately immobilized onto streptavidin-coated gold nanosensor particles (Nicoya) in lane pairs. The reference sensor of the lane held either immobilized mNotch1 or rβ2AR peptide as an established negative control surface, and the test sensor held one of the candidate PDZ domain-interacting peptides. All on-board dilutions and experimental passages of analytes over immobilized peptides were performed with a running buffer consisting of phosphate-buffered saline (137 mM NaCl, 2.7 mM KCl, 4.3 mM disodium phosphate, 1.4 mM monopotassium phosphate; and pH 7.3, from Teknova) supplemented with 0.1% Tween 20 (Nicoya), […] (w/v) bovine serum albumin (BSA; Nicoya), and 3% glycerol (the latter to reduce bulk-shift readings when transitioning from running buffer to protein analyte injections). […] Each sensor was regenerated between each single-stack passage by the injection of a surface regeneration buffer (10 mM NaOH). Non-specific binding to the paired, negative control peptide-bound streptavidin surface was subtracted from each single-stack curve and then binding parameters of the on-rate (ka), off-rate (kd), and dissociation constant (KD) were calculated using the 1:1 Langmuir kinetics model with mass transport limitation (Alto software version 2.3.1; Nicoya). Observed maximal response units (Rmax) and calculated KD values for each single-stack injection were plotted using GraphPad Prism 10.

[5] = system: HA-epitope tagged RGS12 full-length protein; test: Co-immunoprecipitation of RGS12 and SAPAP3 in HEK293T cells; assay type: binding
Procedure: Monolayer cultures of the immortalized human embryonic kidney cell line HEK293T (ATCC CRL-3216) were transfected at 75–90% confluence using FuGENE6 transfection reagent (Promega; Madison, WI, USA), according to the manufacturer’s instructions, with 0.5 μg of pcDNA3.1-Flag-SAPAP3 expression plasmid DNA and/or 0.5 μg of pcDNA3.1-HA-RGS12 expression plasmid DNA [103]. Forty-eight hours later, the transfected cells were lysed with ice-cold Triton-X lysis buffer (20 mM Tris-HCl pH 7.5, 150 mM NaCl, 1 mM EDTA, 1 mM EGTA, and 1% Triton X-100, supplemented with protease inhibitors). The lysates were clarified by centrifugation (16,000× g) and then incubated overnight at 4 °C with […] of HA- or Flag-epitope tag-specific antibody followed by precipitation with protein-A/G beads (Santa Cruz Biotechnology; Dallas, TX, USA). The beads were washed 3 times with ice-cold lysis buffer and the proteins were eluted in Laemmli buffer. The samples were resolved on 4–12% precast SDS-polyacrylamide gels (Novex/Invitrogen; ThermoFisher Scientific, Waltham, MA, USA), transferred to nitrocellulose, and immunoblotted with horseradish peroxidase (HRP)-conjugated primary antibodies to HA- or Flag-epitope tags and visualized by ECL chemiluminescence (GE Healthcare; Chicago, IL, USA).

[6] = molecular target: T2, Wildtype human RGS12 PDZ domain GST-fusion protein (human, UniProt O14924 18-101); test: SPR
T2 chain: T1 sequence (O14924 18-101 R59Q) with Q42R

[7] = molecular target: T3, R59Q-variant human RGS12 PDZ domain GST-fusion protein (human, UniProt O14924 18-101, R59Q); test: SPR
T3 sequence: T1 sequence (O14924 18-101 R59Q)

[8] = molecular target: T2, Wildtype human RGS12 PDZ domain …; test: SPR
[9] = molecular target: T3, R59Q-variant human RGS12 PDZ domain …; test: SPR; remark: listed apart in the source
[10] = molecular target: T4, Wildtype human RGS12 PDZ domain GST-fusion protein (human, UniProt O14924 18-101); test: SPR; Alto 8 × 2 digital microfluidics SPR (Nicoya); biotinylated peptides immobilised on streptavidin-coated gold nanosensors; GST-RGS12 PDZ fusion protein as analyte, single-cycle kinetics, 111 nM-9 μM; PBS pH 7.3 with 0.1% Tween 20, BSA, 3% glycerol; mNotch1 or rβ2AR reference sensor subtracted; 1:1 Langmuir model with mass transport limitation; apparent rates, estimated KD; details: both partners purified
T4 construct: human RGS12 PDZ domain, aa 18-101 of UniProt O14924; also called GST-RGS12 PDZ domain fusion protein; wildtype PDZ protein; not shown: GST, N-terminal, kept
T4 sequence (looked up): T1 sequence (O14924 18-101 R59Q) with Q42R

biotin-Ahx-PSQITHIPEAFK-carboxylic acid [mouse Notch1]
binding of negative control to RGS12 PDZ domain (in words) [1]: no demonstrable affinity

biotin-NH-SATESADSIEIYIPEAQTRL-carboxylic acid
SPR binding of recombinant RGS12 PDZ domain (in words) [2]: bound specifically

biotin-NH-SATESADSIEIYIPEAQSRL-amide
SPR binding of recombinant RGS12 PDZ domain (in words) [2]: no appreciable binding

RTLRLKQPSTPTRTAV-OH [C-terminal tail of rat MEK2, 16-mer]
SPR binding to rat RGS12 PDZ domain (in words) [3]: direct and selective binding

biotin-Ahx-QGRNCNTNDSPL-carboxylic acid [rat beta2-adrenergic receptor]
binding of negative control to RGS12 PDZ domain (in words) [1]: no demonstrable affinity

biotin-Ahx-RTLRLKQPSTPTRTAV-carboxylic acid [TRTAV-COOH of MEK2]
KD of R59Q variant relative to wildtype (fold less than the wildtype) [4]: at least 2 fold | maximal binding signal (Rmax), R59Q in comparison to wildtype [4]: less maximal binding signal (Rmax)

VGSSSANTSTTL-OH [C-terminal tail of rat CXCR2, 12-mer]
SPR binding to rat RGS12 PDZ domain (in words) [3]: direct and selective binding

B1: Flag-epitope tagged SAPAP3: Flag-epitope tagged SAPAP3 full-length protein expressed in HEK293T cells (protein, UniProt O95886 1-979, looked up)
chain: MRGYHGDRGSHPRPARFADQQHMDVGPAARAPYLLGSREAFSTEPRFCAPRAGLGHISPEGPLSLSEGPSVGPEGGPAGAGVGGGSSTFPRMYPGQGPFDTCEDCVGHPQGKGAPRLPPTLLDQFEKQLPVQQDGFHTLPYQRGPAGAGPGPAPGTGTAPEPRSESPSRIRHLVHSVQKLFAKSHSLEAPGKRDYNGPKAEGRGGSGGDSYPGPGSGGPHTSHHHHHHHHHHHHQSRHGKRSKSKDRKGDGRHQAKSTGWWSSDDNLDSDSGFLAGGRPPGEPGGPFCLEGPDGSYRDLSFKGRSGGSEGRCLACTGMSMSLDGQSVKRSAWHTMMVSQGRDGYPGAGPGKGLLGPETKAKARTYHYLQVPQDDWGGYPTGGKDGEIPCRRMRSGSYIKAMGDEESGDSDGSPKTSPKAVARRFTTRRSSSVDQARINCCVPPRIHPRSSIPGYSRSLTTGQLSDELNQQLEAVCGSVFGELESQAVDALDLPGCFRMRSHSYLRAIQAGCSQDDDCLPLLATPAAVSGRPGSSFNFRKAPPPIPPGSQAPPRISITAQSSTDSAHESFTAAEGPARRCSSADGLDGPAMGARTLELAPVPPRASPKPPTLIIKTIPGREELRSLARQRKWRPSIGVQVETISDSDTENRSRREFHSIGVQVEEDKRRARFKRSNSVTAGVQADLELEGLAGLATVATEDKALQFGRSFQRHASEPQPGPRAPTYSVFRTVHTQGQWAYREGYPLPYEPPATDGSPGPAPAPTPGPGAGRRDSWIERGSRSLPDSGRASPCPRDGEWFIKMLRAEVEKLEHWCQQMEREAEDYELPEEILEKIRSAVGSTQLLLSQKVQQFFRLCQQSMDPTAFPVPTFQDLAGFWDLLQLSIEDVTLKFLELQQLKANSWKLLEPKEEKKVPPPIPKKPLRGRGVPVKERSLDSVDRQRQEARKRLLAAKRAASFRHSSATESADSIEIYIPEAQTRL
modifications: full-length Flag epitope tag
co-immunoprecipitation ([5]; IP with anti-Flag antibody, Triton-X lysis buffer pH 7.5): co-immuno-precipitate | reciprocal co-immunoprecipitation ([5]; IP with anti-HA antibody): reciprocal co-immunoprecipitation

B2: CXCR2 C-terminal peptide, biotin-Ahx-VGSSSGHTSTTL-carboxylic acid (peptide)
peptide: {Biotin-Ahx}-VGSSSGHTSTTL-OH
SMILES: CC(C)C[C@H](NC(=O)[C@@H](NC(=O)[C@@H](NC(=O)[C@H](CO)NC(=O)[C@@H](NC(=O)[C@H](Cc1c[nH]cn1)NC(=O)CNC(=O)[C@H](CO)NC(=O)[C@H](CO)NC(=O)[C@H](CO)NC(=O)CNC(=O)[C@@H](NC(=O)CCCCCNC(=O)CCCC[C@@H]1SC[C@@H]2NC(=O)N[C@@H]21)C(C)C)[C@@H](C)O)[C@@H](C)O)[C@@H](C)O)C(=O)O
notes: C-terminus of CXCR2; also called CXCR2 C-tail peptide TSTTL-COOH; CXCR2 TSTTL-COOH biosensor; source: synthetic peptide (GenScript)
koff [6]: 0.000542 s⁻¹ | koff [7]: 0.00193 s⁻¹ | Kd [8]: 450 nM | Kd [9]: 1280 nM | binding result [10]: binds

B3: SAPAP3 C-terminal peptide, biotin-Ahx-IYIPEAQTRL-carboxylic acid (peptide)
peptide: {Biotin-Ahx}-IYIPEAQTRL-OH
SMILES: CC[C@H](C)[C@H](NC(=O)CCCCCNC(=O)CCCC[C@@H]1SC[C@@H]2NC(=O)N[C@@H]21)C(=O)N[C@@H](Cc1ccc(O)cc1)C(=O)N[C@H](C(=O)N1CCC[C@H]1C(=O)N[C@@H](CCC(=O)O)C(=O)N[C@@H](C)C(=O)N[C@@H](CCC(N)=O)C(=O)N[C@H](C(=O)N[C@@H](CCCNC(=N)N)C(=O)N[C@@H](CC(C)C)C(=O)O)[C@@H](C)O)[C@@H](C)CC
notes: C-terminus of SAPAP3; the last ten residues of the human 20-mer aa 960-979; also called SAPAP3 C-tail peptide AQTRL-COOH; source: synthetic peptide (GenScript)
koff [6]: 0.000383 s⁻¹ | koff [7]: 0.00923 s⁻¹ | Kd [8]: 260 nM | Kd [9]: 600 nM | binding result [10]: binds

B4: MEK2 C-terminal peptide, biotin-Ahx-RTLRLKQPSTPTRTAV-carboxylic acid (peptide)
peptide: {Biotin-Ahx}-RTLRLKQPSTPTRTAV-OH
SMILES: CC(C)C[C@H](NC(=O)[C@H](CCCNC(=N)N)NC(=O)[C@H](CC(C)C)NC(=O)[C@@H](NC(=O)[C@H](CCCNC(=N)N)NC(=O)CCCCCNC(=O)CCCC[C@@H]1SC[C@@H]2NC(=O)N[C@@H]21)[C@@H](C)O)C(=O)N[C@@H](CCCCN)C(=O)N[C@@H](CCC(N)=O)C(=O)N1CCC[C@H]1C(=O)N[C@@H](CO)C(=O)N[C@H](C(=O)N1CCC[C@H]1C(=O)N[C@H](C(=O)N[C@@H](CCCNC(=N)N)C(=O)N[C@H](C(=O)N[C@@H](C)C(=O)N[C@H](C(=O)O)C(C)C)[C@@H](C)O)[C@@H](C)O)[C@@H](C)O
notes: C-terminus of MEK2; also called MEK2 C-tail; TRTAV-COOH of MEK2; source: synthetic peptide (GenScript)
binding result [10]: binds

Source: publication PMC11546610, “Molecular Modeling and In Vitro Functional Analysis of the RGS12 PDZ Domain Variant Associated with High-Penetrance Familial Bipolar Disorder” (International Journal of Molecular Sciences, 2024)
